From patent EP4725965A1 (Sunshine Guojian Pharmaceutical (Shanghai) Co., Ltd., dated 2026)
Where two headings read alike, the source gives them in different places.

Legend:
[1] = molecular target: human BDCA2 on cells (293FT-BDCA2 stable transfectant) (human) (UniProt Q8WTT0); assay: flow cytometry (FACS) on 293FT-BDCA2 cells
human BDCA2-his protein [2] = molecular target: T1, human BDCA2-his protein (human, UniProt Q8WTT0 45-213); assay: SPR, Biacore 8K, antibody captured on Protein A chip, BDCA2-his as analyte
T1 construct: also called BDCA2-his antigen protein
T1 sequence: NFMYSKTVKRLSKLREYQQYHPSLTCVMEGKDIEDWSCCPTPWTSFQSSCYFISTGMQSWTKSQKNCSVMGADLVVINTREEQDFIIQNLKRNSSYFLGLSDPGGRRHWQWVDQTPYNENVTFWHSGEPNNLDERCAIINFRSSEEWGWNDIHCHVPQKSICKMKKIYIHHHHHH

[3] = molecular target: human BDCA2 on cells (293FT-BDCA2 stable transfectant) (human) (UniProt Q8WTT0); assay: flow cytometry (FACS) on 293FT-BDCA2 cells; remark: listed apart in the source
human BDCA2-Fc protein = molecular target: T2, human BDCA2-Fc protein (human, UniProt Q8WTT0 45-213); assay: ELISA, BDCA2-Fc coated at 1 ug/mL
T2 sequence: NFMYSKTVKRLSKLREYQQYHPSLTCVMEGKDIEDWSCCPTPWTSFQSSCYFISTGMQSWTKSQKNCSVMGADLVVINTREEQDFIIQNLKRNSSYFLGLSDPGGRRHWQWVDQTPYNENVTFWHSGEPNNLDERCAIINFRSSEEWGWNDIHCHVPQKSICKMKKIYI

human BDCA2-his protein [4] = molecular target: T1, human BDCA2-his protein; assay: ELISA, BDCA2-his coated at 0.1 ug/mL, anti-human Fc HRP

## positive control antibody Litifilimab (BIIB059, 24F4A)
[1]
  EC50: 0.103 mg/L
Human BDCA2-his protein [2]
  Kd: 0.087 nM
  koff: 0.000121 s⁻¹
  kon: 1.39e+06 M⁻¹ s⁻¹
[3]
  EC50: 0.124 mg/L
Human BDCA2-Fc protein
  EC50: 0.0346 mg/L
Human BDCA2-Fc protein; record 2
  EC50: 0.0463 mg/L

B1: humanized antibody 230 (antibody, V domains shown)
VH: QVQLVQSGAEVKKPGASVKVSCKASGYTFTSYIIHWVRQAPGQGLEWMGTIYPGNGDTSYNQKFKGRVTMTRDTSTSTVYMELSSLRSEDTAVYYCARMGDNEYFDYWGQGTLVTVSS
VL: DIQMTQSPSSLSASVGDRVTITCRASGNIHNYLAWYQQKPGKAPKLLLYDAETLADGVPSRFSGSGSGTDYTLTISSLQPEDFATYYCQHFWSTPYTFGGGTKVEIK
notes: Human IgG1 constant region and human kappa chain constant region; also called 230 antibody; parental monoclonal antibody 230
Human BDCA2-his protein [2]
  Kd: 0.0768 nM
  koff: 0.00131 s⁻¹
  kon: 1.7e+07 M⁻¹ s⁻¹

B2: antibody 237011 (antibody, human IgG1, V domains shown)
VH: QVQLVQSGAEVKKPGASVKVSCKASGYTFTSYLIHWVRQAPGQGLEWMGTIYPGGGDTSYNQKFKGRVTMTRDTSTSTVYMELSSLRSEDTAVYYCARMGDNEYFDYWGQGTLVTVSS
VL: DIQMTQSPSSLSASVGDRVTITCRASGNIHNYLAWYQQKPGKAPKLLLYDAETLAEGVPSRFSGSGSGTDYTLTISSLQPEDFATYYCQHFWSTPYTFGGGTKVEIK
Human BDCA2-his protein [2]
  Kd: 0.0259 nM
  koff: 0.000652 s⁻¹
  kon: 2.52e+07 M⁻¹ s⁻¹

B3: 230IL-NR-DI (antibody, V domains shown)
VH: QVQLVQSGAEVKKPGASVKVSCKASGYTFTSYLIHWVRQAPGQGLEWMGTIYPGRGDTSYNQKFKGRVTMTRDTSTSTVYMELSSLRSEDTAVYYCARMGDNEYFDYWGQGTLVTVSS
VL: DIQMTQSPSSLSASVGDRVTITCRASGNIHNYLAWYQQKPGKAPKLLLYDAETLAIGVPSRFSGSGSGTDYTLTISSLQPEDFATYYCQHFWSTPYTFGGGTKVEIK
notes: Linked to the constant region of the IgG1 subtype
Human BDCA2-his protein [4]
  binding result: binds

B4: 230IL-DE (antibody, V domains shown)
VH: QVQLVQSGAEVKKPGASVKVSCKASGYTFTSYLIHWVRQAPGQGLEWMGTIYPGNGDTSYNQKFKGRVTMTRDTSTSTVYMELSSLRSEDTAVYYCARMGDNEYFDYWGQGTLVTVSS
VL: DIQMTQSPSSLSASVGDRVTITCRASGNIHNYLAWYQQKPGKAPKLLLYDAETLAEGVPSRFSGSGSGTDYTLTISSLQPEDFATYYCQHFWSTPYTFGGGTKVEIK
notes: as for B3
Human BDCA2-his protein [4]
  binding result: binds

B5: antibody 2391 (antibody, human IgG1, V domains shown)
VH: QVQLVQSGAEVKKPGASVKVSCKASGYTFTSYIIHWVRQAPGQGLEWMGTIYPGGGDTSYNQKFKGRVTMTRDTSTSTVYMELSSLRSEDTAVYYCARMGDNEYFDYWGQGTLVTVSS
VL: DIQMTQSPSSLSASVGDRVTITCRASGNIHNYLAWYQQKPGKAPKLLLYDAETLAEGVPSRFSGSGSGTDYTLTISSLQPEDFATYYCQHFWSTPYTFGGGTKVEIK
Human BDCA2-his protein [2]
  Kd: 0.0357 nM
  koff: 0.000874 s⁻¹
  kon: 2.44e+07 M⁻¹ s⁻¹

B6: 230-I33L (antibody, V domains shown)
VH: QVQLVQSGAEVKKPGASVKVSCKASGYTFTSYLIHWVRQAPGQGLEWMGTIYPGNGDTSYNQKFKGRVTMTRDTSTSTVYMELSSLRSEDTAVYYCARMGDNEYFDYWGQGTLVTVSS
VL: DIQMTQSPSSLSASVGDRVTITCRASGNIHNYLAWYQQKPGKAPKLLLYDAETLADGVPSRFSGSGSGTDYTLTISSLQPEDFATYYCQHFWSTPYTFGGGTKVEIK
notes: Single-point mutant of humanized antibody 230 (human IgG1/kappa)
Human BDCA2-his protein [4]
  binding result: binds

B7: 230IL-NG-DI (antibody, V domains shown)
VH: QVQLVQSGAEVKKPGASVKVSCKASGYTFTSYLIHWVRQAPGQGLEWMGTIYPGGGDTSYNQKFKGRVTMTRDTSTSTVYMELSSLRSEDTAVYYCARMGDNEYFDYWGQGTLVTVSS
VL: DIQMTQSPSSLSASVGDRVTITCRASGNIHNYLAWYQQKPGKAPKLLLYDAETLAIGVPSRFSGSGSGTDYTLTISSLQPEDFATYYCQHFWSTPYTFGGGTKVEIK
notes: as for B3
Human BDCA2-his protein [4]
  binding result: binds

B8: 230-N55R (antibody, V domains shown)
VH: QVQLVQSGAEVKKPGASVKVSCKASGYTFTSYIIHWVRQAPGQGLEWMGTIYPGRGDTSYNQKFKGRVTMTRDTSTSTVYMELSSLRSEDTAVYYCARMGDNEYFDYWGQGTLVTVSS
VL: DIQMTQSPSSLSASVGDRVTITCRASGNIHNYLAWYQQKPGKAPKLLLYDAETLADGVPSRFSGSGSGTDYTLTISSLQPEDFATYYCQHFWSTPYTFGGGTKVEIK
notes: as for B6
Human BDCA2-his protein [4]
  binding result: binds

B9: 230-N55A (antibody, V domains shown)
VH: QVQLVQSGAEVKKPGASVKVSCKASGYTFTSYIIHWVRQAPGQGLEWMGTIYPGAGDTSYNQKFKGRVTMTRDTSTSTVYMELSSLRSEDTAVYYCARMGDNEYFDYWGQGTLVTVSS
VL: DIQMTQSPSSLSASVGDRVTITCRASGNIHNYLAWYQQKPGKAPKLLLYDAETLADGVPSRFSGSGSGTDYTLTISSLQPEDFATYYCQHFWSTPYTFGGGTKVEIK
notes: as for B6
Human BDCA2-his protein [4]
  binding result: binds

B10: 230NG-DI (antibody, V domains shown)
VH: QVQLVQSGAEVKKPGASVKVSCKASGYTFTSYIIHWVRQAPGQGLEWMGTIYPGGGDTSYNQKFKGRVTMTRDTSTSTVYMELSSLRSEDTAVYYCARMGDNEYFDYWGQGTLVTVSS
VL: DIQMTQSPSSLSASVGDRVTITCRASGNIHNYLAWYQQKPGKAPKLLLYDAETLAIGVPSRFSGSGSGTDYTLTISSLQPEDFATYYCQHFWSTPYTFGGGTKVEIK
notes: as for B3
Human BDCA2-his protein [4]
  binding result: binds

B11: 230-N55G (antibody, V domains shown)
VH: QVQLVQSGAEVKKPGASVKVSCKASGYTFTSYIIHWVRQAPGQGLEWMGTIYPGGGDTSYNQKFKGRVTMTRDTSTSTVYMELSSLRSEDTAVYYCARMGDNEYFDYWGQGTLVTVSS
VL: DIQMTQSPSSLSASVGDRVTITCRASGNIHNYLAWYQQKPGKAPKLLLYDAETLADGVPSRFSGSGSGTDYTLTISSLQPEDFATYYCQHFWSTPYTFGGGTKVEIK
notes: as for B6
Human BDCA2-his protein [4]
  binding result: binds

B12: 230NR-DE (antibody, V domains shown)
VH: QVQLVQSGAEVKKPGASVKVSCKASGYTFTSYIIHWVRQAPGQGLEWMGTIYPGRGDTSYNQKFKGRVTMTRDTSTSTVYMELSSLRSEDTAVYYCARMGDNEYFDYWGQGTLVTVSS
VL: DIQMTQSPSSLSASVGDRVTITCRASGNIHNYLAWYQQKPGKAPKLLLYDAETLAEGVPSRFSGSGSGTDYTLTISSLQPEDFATYYCQHFWSTPYTFGGGTKVEIK
notes: as for B3
Human BDCA2-his protein [4]
  binding result: binds

B13: 230IL-NR-DE (antibody, V domains shown)
VH: QVQLVQSGAEVKKPGASVKVSCKASGYTFTSYLIHWVRQAPGQGLEWMGTIYPGRGDTSYNQKFKGRVTMTRDTSTSTVYMELSSLRSEDTAVYYCARMGDNEYFDYWGQGTLVTVSS
VL: DIQMTQSPSSLSASVGDRVTITCRASGNIHNYLAWYQQKPGKAPKLLLYDAETLAEGVPSRFSGSGSGTDYTLTISSLQPEDFATYYCQHFWSTPYTFGGGTKVEIK
notes: as for B3
Human BDCA2-his protein [4]
  binding result: binds

B14: 230-N55S (antibody, V domains shown)
VH: QVQLVQSGAEVKKPGASVKVSCKASGYTFTSYIIHWVRQAPGQGLEWMGTIYPGSGDTSYNQKFKGRVTMTRDTSTSTVYMELSSLRSEDTAVYYCARMGDNEYFDYWGQGTLVTVSS
VL: DIQMTQSPSSLSASVGDRVTITCRASGNIHNYLAWYQQKPGKAPKLLLYDAETLADGVPSRFSGSGSGTDYTLTISSLQPEDFATYYCQHFWSTPYTFGGGTKVEIK
notes: as for B6
Human BDCA2-his protein [4]
  binding result: binds

B15: 230NR-DI (antibody, V domains shown)
VH: QVQLVQSGAEVKKPGASVKVSCKASGYTFTSYIIHWVRQAPGQGLEWMGTIYPGRGDTSYNQKFKGRVTMTRDTSTSTVYMELSSLRSEDTAVYYCARMGDNEYFDYWGQGTLVTVSS
VL: DIQMTQSPSSLSASVGDRVTITCRASGNIHNYLAWYQQKPGKAPKLLLYDAETLAIGVPSRFSGSGSGTDYTLTISSLQPEDFATYYCQHFWSTPYTFGGGTKVEIK
notes: as for B3
Human BDCA2-his protein [4]
  binding result: binds

B16: 230IL-DI (antibody, V domains shown)
VH: QVQLVQSGAEVKKPGASVKVSCKASGYTFTSYLIHWVRQAPGQGLEWMGTIYPGNGDTSYNQKFKGRVTMTRDTSTSTVYMELSSLRSEDTAVYYCARMGDNEYFDYWGQGTLVTVSS
VL: DIQMTQSPSSLSASVGDRVTITCRASGNIHNYLAWYQQKPGKAPKLLLYDAETLAIGVPSRFSGSGSGTDYTLTISSLQPEDFATYYCQHFWSTPYTFGGGTKVEIK
notes: as for B3
Human BDCA2-his protein [4]
  binding result: binds

B17: antibody 230 mutant with light chain CDR2 DAETLAD changed to DAETLAE (antibody, V domains shown)
VH: QVQLVQSGAEVKKPGASVKVSCKASGYTFTSYIIHWVRQAPGQGLEWMGTIYPGNGDTSYNQKFKGRVTMTRDTSTSTVYMELSSLRSEDTAVYYCARMGDNEYFDYWGQGTLVTVSS
VL: DIQMTQSPSSLSASVGDRVTITCRASGNIHNYLAWYQQKPGKAPKLLLYDAETLAEGVPSRFSGSGSGTDYTLTISSLQPEDFATYYCQHFWSTPYTFGGGTKVEIK
notes: Single-point mutant of humanized antibody 230; also called 230 antibody-DE
Human BDCA2-his protein [4]
  binding result: binds

B18: antibody 230 mutant with light chain CDR2 DAETLAD changed to DAETLAI (antibody, V domains shown)
VH: QVQLVQSGAEVKKPGASVKVSCKASGYTFTSYIIHWVRQAPGQGLEWMGTIYPGNGDTSYNQKFKGRVTMTRDTSTSTVYMELSSLRSEDTAVYYCARMGDNEYFDYWGQGTLVTVSS
VL: DIQMTQSPSSLSASVGDRVTITCRASGNIHNYLAWYQQKPGKAPKLLLYDAETLAIGVPSRFSGSGSGTDYTLTISSLQPEDFATYYCQHFWSTPYTFGGGTKVEIK
notes: Single-point mutant of humanized antibody 230; also called 230 antibody-DI
Human BDCA2-his protein [4]
  binding result: binds
